Experimental data published in PMC3764422, “A model of yeast glycolysis based on a consistent kinetic characterisation of all its enzymes” (Febs Letters, 2013).

Tests used:
Experiment in all cases: purified protein
Type in all cases: biochemical, Saccharomyces cerevisiae
Conditions in all cases: standardised reaction buffer, 30 °C
purified protein [1] = substrate: CC(=O)C(=O)O
purified protein [2] = substrate: O=C(O)[C@H](O)COP(=O)(O)O
purified protein [3] = substrate: O=C[C@H](O)COP(=O)(O)O
purified protein [4] = substrate: O=C(O)[C@@H](CO)OP(=O)(O)O
purified protein [5] = substrate: Nc1ncnc2c1ncn2[C@@H]1O[C@H](COP(=O)(O)OP(=O)(O)OP(=O)(O)O)[C@@H](O)[C@H]1O
[6] = direction with ATP as co-substrate

B1: Pdc1p (Saccharomyces cerevisiae S288C) (protein)
chain: SEITLGKYLFERLKQVNVNTVFGLPGDFNLSLLDKIYEVEGMRWAGNANELNAAYAADGYARIKGMSCIITTFGVGELSALNGIAGSYAEHVGVLHVVGVPSISAQAKQLLLHHTLGNGDFTVFHRMSANISETTAMITDIATAPAEIDRCIRTTYVTQRPVYLGLPANLVDLNVPAKLLQTPIDMSLKPNDAESEKEVIDTILALVKDAKNPVILADACCSRHDVKAETKKLIDLTQFPAFVTPMGKGSIDEQHPRYGGVYVGTLSKPEVKEAVESADLILSVGALLSDFNTGSFSYSYKTKNIVEFHSDHMKIRNATFPGVQMKFVLQKLLTTIADAAKGYKPVAVPARTPANAAVPASTPLKQEWMWNQLGNFLQEGDVVIAETGTSAFGINQTTFPNNTYGISQVLWGSIGFTTGATLGAAFAAEEIDPKKRVILFIGDGSLQLTVQEISTMIRWGLKPYLFVLNNDGYTIEKLIHGPKAQYNEIQGWDHLSLLPTFGAKDYETHRVATTGEWDKLTQDKSFNDNSKIRMIEIMLPVFDAPQNLVEQAKLTAATNAKQ
notes: tagged full-length ORF, expressed in and purified from S. cerevisiae, assayed freshly purified
What does the source list for B1?
Km (purified protein [1]): 8.5 (SEM 10%) mM; kcat (purified protein [1]): 12.1 s⁻¹

B2: Pdc6p (Saccharomyces cerevisiae S288C) (protein)
chain: SEITLGKYLFERLKQVNVNTIFGLPGDFNLSLLDKIYEVDGLRWAGNANELNAAYAADGYARIKGLSVLVTTFGVGELSALNGIAGSYAEHVGVLHVVGVPSISAQAKQLLLHHTLGNGDFTVFHRMSANISETTSMITDIATAPSEIDRLIRTTFITQRPSYLGLPANLVDLKVPGSLLEKPIDLSLKPNDPEAEKEVIDTVLELIQNSKNPVILSDACASRHNVKKETQKLIDLTQFPAFVTPLGKGSIDEQHPRYGGVYVGTLSKQDVKQAVESADLILSVGALLSDFNTGSFSYSYKTKNVVEFHSDYVKVKNATFLGVQMKFALQNLLKVIPDVVKGYKSVPVPTKTPANKGVPASTPLKQEWLWNELSKFLQEGDVIISETGTSAFGINQTIFPKDAYGISQVLWGSIGFTTGATLGAAFAAEEIDPNKRVILFIGDGSLQLTVQEISTMIRWGLKPYLFVLNNDGYTIEKLIHGPHAEYNEIQTWDHLALLPAFGAKKYENHKIATTGEWDALTTDSEFQKNSVIRLIELKLPVFDAPESLIKQAQLTAATNAKQ
notes: as for B1
For B2, which Km (purified protein [1]) is on record?
The Km was 2.92 mM.

And the kcat (purified protein [1])?
Its kcat is 9.21 s⁻¹.

B3: Pgk1p (Saccharomyces cerevisiae S288C) (protein)
chain: SLSSKLSVQDLDLKDKRVFIRVDFNVPLDGKKITSNQRIVAALPTIKYVLEHHPRYVVLASHLGRPNGERNEKYSLAPVAKELQSLLGKDVTFLNDCVGPEVEAAVKASAPGSVILLENLRYHIEEEGSRKVDGQKVKASKEDVQKFRHELSSLADVYINDAFGTAHRAHSSMVGFDLPQRAAGFLLEKELKYFGKALENPTRPFLAILGGAKVADKIQLIDNLLDKVDSIIIGGGMAFTFKKVLENTEIGDSIFDKAGAEIVPKLMEKAKAKGVEVVLPVDFIIADAFSADANTKTVTDKEGIPAGWQGLDNGPESRKLFAATVAKAKTIVWNGPPGVFEFEKFAAGTKALLDEVVKSSAAGNTVIIGGGDTATVAKKYGVTDKISHVSTGGGASLELLEGKELPGVAFLSEKK
notes: tagged full-length ORF, expressed in and purified from S. cerevisiae
Which Km (purified protein [2]; [6]) does the source give for B3 here?
Its Km is 4580 µM.

What about the kcat (purified protein [2]; [6]) of the same protein?
Its kcat is 58.6 s⁻¹.

B4: Tdh3p (Saccharomyces cerevisiae S288C) (protein)
chain: VRVAINGFGRIGRLVMRIALSRPNVEVVALNDPFITNDYAAYMFKYDSTHGRYAGEVSHDDKHIIVDGKKIATYQERDPANLPWGSSNVDIAIDSTGVFKELDTAQKHIDAGAKKVVITAPSSTAPMFVMGVNEEKYTSDLKIVSNASCTTNCLAPLAKVINDAFGIEEGLMTTVHSLTATQKTVDGPSHKDWRGGRTASGNIIPSSTGAAKAVGKVLPELQGKLTGMAFRVPTVDVSVVDLTVKLNKETTYDEIKKVVKAAAEGKLKGVLGYTEDAVVSSDFLGDSHSSIFDASAGIQLSPKFVKLVSWYDNEYGYSTRVVDLVEHVAKA
notes: as for B3
What does the source list for B4?
Km (purified protein [3]): 0.423 (SEM 9.2%) mM; kcat (purified protein [3]): 18.2 s⁻¹

B5: Eno2p (Saccharomyces cerevisiae S288C) (protein)
chain: MAVSKVYARSVYDSRGNPTVEVELTTEKGVFRSIVPSGASTGVHEALEMRDEDKSKWMGKGVMNAVNNVNNVIAAAFVKANLDVKDQKAVDDFLLSLDGTANKSKLGANAILGVSMAAARAAAAEKNVPLYQHLADLSKSKTSPYVLPVPFLNVLNGGSHAGGALALQEFMIAPTGAKTFAEAMRIGSEVYHNLKSLTKKRYGASAGNVGDEGGVAPNIQTAEEALDLIVDAIKAAGHDGKVKIGLDCASSEFFKDGKYDLDFKNPESDKSKWLTGVELADMYHSLMKRYPIVSIEDPFAEDDWEAWSHFFKTAGIQIVADDLTVTNPARIATAIEKKAADALLLKVNQIGTLSESIKAAQDSFAANWGVMVSHRSGETEDTFIADLVVGLRTGQIKTGAPARSERLAKLNQLLRIEEELGDKAVYAGENFHHGDKL
notes: N-terminally tagged full-length ORF, expressed in and purified from S. cerevisiae, assayed fresh
Which results are given for B5?
Km (purified protein [4]): 0.104 mM; kcat (purified protein [4]): 19.9 s⁻¹

B6: Glk1p (Saccharomyces cerevisiae S288C) (protein)
chain: SFDDLHKATERAVIQAVDQICDDFEVTPEKLDELTAYFIEQMEKGLAPPKEGHTLASDKGLPMIPAFVTGSPNGTERGVLLAADLGGTNFRICSVNLHGDHTFSMEQMKSKIPDDLLDDENVTSDDLFGFLARRTLAFMKKYHPDELAKGKDAKPMKLGFTFSYPVDQTSLNSGTLIRWTKGFRIADTVGKDVVQLYQEQLSAQGMPMIKVVALTNDTVGTYLSHCYTSDNTDSMTSGEISEPVIGCIFGTGTNGCYMEEINKITKLPQELRDKLIKEGKTHMIINVEWGSFDNELKHLPTTKYDVVIDQKLSTNPGFHLFEKRVSGMFLGEVLRNILVDLHSQGLLLQQYRSKEQLPRHLTTPFQLSSEVLSHIEIDDSTGLRETELSLLQSLRLPTTPTERVQIQKLVRAISRRSAYLAAVPLAAILIKTNALNKRYHGEVEIGCDGSVVEYYPGFRSMLRHALALSPLGAEGERKVHLKIAKDGSGVGAALCALVA
notes: tagged full-length ORF (mostly C-terminal tag, yeast ORF/GST/TAP collections), expressed in and purified from S. cerevisiae
B6 was tested. Which Km (purified protein [5]) did it give?
Its Km is 865 µM.

And the kcat (purified protein [5])?
The kcat was 0.0721 s⁻¹.

B7: Gpm1p (Saccharomyces cerevisiae S288C) (protein)
chain: PKLVLVRHGQSEWNEKNLFTGWVDVKLSAKGQQEAARAGELLKEKKVYPDVLYTSKLSRAIQTANIALEKADRLWIPVNRSWRLNERHYGDLQGKDKAETLKKFGEEKFNTYRRSFDVPPPPIDASSPFSQKGDERYKYVDPNVLPETESLALVIDRLLPYWQDVIAKDLLSGKTVMIAAHGNSLRGLVKHLEGISDADIAKLNIPTGIPLVFELDENLKPSKPSYYLDPEAAAAGAAAVANQGKK
notes: as for B3
Which Km (purified protein [4]; reverse reaction (P2G to P3G)) does the source give for B7 here?
The Km was 1.41 mM.

What about the kcat (purified protein [4]; reverse reaction (P2G to P3G)) of the same protein?
Its kcat is 400 s⁻¹.

B8: Eno1p (Saccharomyces cerevisiae S288C) (protein)
chain: AVSKVYARSVYDSRGNPTVEVELTTEKGVFRSIVPSGASTGVHEALEMRDGDKSKWMGKGVLHAVKNVNDVIAPAFVKANIDVKDQKAVDDFLISLDGTANKSKLGANAILGVSLAASRAAAAEKNVPLYKHLADLSKSKTSPYVLPVPFLNVLNGGSHAGGALALQEFMIAPTGAKTFAEALRIGSEVYHNLKSLTKKRYGASAGNVGDEGGVAPNIQTAEEALDLIVDAIKAAGHDGKIKIGLDCASSEFFKDGKYDLDFKNPNSDKSKWLTGPQLADLYHSLMKRYPIVSIEDPFAEDDWEAWSHFFKTAGIQIVADDLTVTNPKRIATAIEKKAADALLLKVNQIGTLSESIKAAQDSFAAGWGVMVSHRSGETEDTFIADLVVGLRTGQIKTGAPARSERLAKLNQLLRIEEELGDNAVFAGENFHHGDKL
notes: tagged full-length ORF, expressed in and purified from S. cerevisiae, assayed immediately after purification
What does the source list for B8?
kcat (purified protein [2]; product PEP): 5.07 s⁻¹; Km (purified protein [4]): 0.043 (SEM 10%) mM; kcat (purified protein [4]): 7.6 s⁻¹

B9: Tdh2p (Saccharomyces cerevisiae S288C) (protein)
chain: VRVAINGFGRIGRLVMRIALQRKNVEVVALNDPFISNDYSAYMFKYDSTHGRYAGEVSHDDKHIIVDGHKIATFQERDPANLPWASLNIDIAIDSTGVFKELDTAQKHIDAGAKKVVITAPSSTAPMFVMGVNEEKYTSDLKIVSNASCTTNCLAPLAKVINDAFGIEEGLMTTVHSMTATQKTVDGPSHKDWRGGRTASGNIIPSSTGAAKAVGKVLPELQGKLTGMAFRVPTVDVSVVDLTVKLNKETTYDEIKKVVKAAAEGKLKGVLGYTEDAVVSSDFLGDSNSSIFDAAAGIQLSPKFVKLVSWYDNEYGYSTRVVDLVEHVAKA
notes: as for B3
B9 was tested. Which Km (purified protein [3]) did it give?
The Km was 0.77 mM.

And the kcat (purified protein [3])?
Its kcat is 8.63 s⁻¹.

B10: Tdh1p (Saccharomyces cerevisiae S288C) (protein)
chain: MIRIAINGFGRIGRLVLRLALQRKDIEVVAVNDPFISNDYAAYMVKYDSTHGRYKGTVSHDDKHIIIDGVKIATYQERDPANLPWGSLKIDVAVDSTGVFKELDTAQKHIDAGAKKVVITAPSSSAPMFVVGVNHTKYTPDKKIVSNASCTTNCLAPLAKVINDAFGIEEGLMTTVHSMTATQKTVDGPSHKDWRGGRTASGNIIPSSTGAAKAVGKVLPELQGKLTGMAFRVPTVDVSVVDLTVKLEKEATYDQIKKAVKAAAEGPMKGVLGYTEDAVVSSDFLGDTHASIFDASAGIQLSPKFVKLISWYDNEYGYSARVVDLIEYVAKA
notes: as for B3
Which results are given for B10?
Km (purified protein [3]): 0.495 (SEM 7.5%) mM; kcat (purified protein [3]): 19.1 s⁻¹

B11: Pdc5p (Saccharomyces cerevisiae S288C) (protein)
chain: MSEITLGKYLFERLSQVNCNTVFGLPGDFNLSLLDKLYEVKGMRWAGNANELNAAYAADGYARIKGMSCIITTFGVGELSALNGIAGSYAEHVGVLHVVGVPSISSQAKQLLLHHTLGNGDFTVFHRMSANISETTAMITDIANAPAEIDRCIRTTYTTQRPVYLGLPANLVDLNVPAKLLETPIDLSLKPNDAEAEAEVVRTVVELIKDAKNPVILADACASRHDVKAETKKLMDLTQFPVYVTPMGKGAIDEQHPRYGGVYVGTLSRPEVKKAVESADLILSIGALLSDFNTGSFSYSYKTKNIVEFHSDHIKIRNATFPGVQMKFALQKLLDAIPEVVKDYKPVAVPARVPITKSTPANTPMKQEWMWNHLGNFLREGDIVIAETGTSAFGINQTTFPTDVYAIVQVLWGSIGFTVGALLGATMAAEELDPKKRVILFIGDGSLQLTVQEISTMIRWGLKPYIFVLNNNGYTIEKLIHGPHAEYNEIQGWDHLALLPTFGARNYETHRVATTGEWEKLTQDKDFQDNSKIRMIEVMLPVFDAPQNLVKQAQLTAATNAKQ
notes: as for B1
How did the Km (purified protein [1]) turn out when B11 was run?
Its Km is 7.08 (SEM 5.7%) mM.

What about the kcat (purified protein [1]) of the same protein?
Its kcat is 10.3 s⁻¹.
